Reference: PMC11257983 (2024)

B1: Flag-CNK^2–549 [Drosophila] / Myc-MEK [Drosophila] (parent)
chain 1: MSKNKLNLVLPPVNTEATVAAATVAPTPPFKTPSGTDTHSLLGKPKTSIDALTETLEGLDMGDTERKRIKMFLSQKEKIGELSDEDLEKLGELGSGNGGVVMKVRHTHTHLIMARKLIHLEVKPAIKKQILRELKVLHECNFPHIVGFYGAFYSDGEISICMEYMDGGSLDLILKRAGRIPESILGRITLAVLKGLSYLRDNHAIIHRDVKPSNILVNSSGEIKICDFGVSGQLIDSMANSFVGTRSYMSPERLQGTHYSVQSDIWSLGLSLVEMAIGMYPIPPPNTATLESIFADNAEESGQPTDEPRAMAIFELLDYIVNEPPPKLEHKIFSTEFKDFVDICLKKQPDERADLKTLLSHPWIRKAELEEVDISGWVCKTMDLPPSTPKRNTSPN
chain 2: AYINIAEWTPDQVTDWIKGLDESMKGYLYEFSKQEIGGRALLNIRPYELENLGMLRIGHQEIVLEAVENLRNFHYHLKNDNLQFMALHVATAAKNLHRELARNHAESTKIDTRILHDITRTIATLKPLVGSLERTPFRKQEMYREYCGNVLKCGLELATIAHRDRFALQPVPAIRQSAERLENLANFVIQDISDPMVLQPASLNLVTLKKRESELGFNIESSYNGIHRVTDIKYNSPAHNSGKIEDGDEIVQINYQTVVGWQHRTVLEHLREALPDVVLTVKKRPKHTKMFGQIYMQPYRLPSKKRNMAARWAAQMPSPRAAFLTLDTEQLATGGTGSAVPDPSKSLSSEKREVLTKANPVSSASDSDSSCSDIPTPTDPKLAAREIRLYYPKPRALLQRRNTICGCEYLSLKNSDLVVPSWHERKPGIGSPTNCDPGSPSIRDKSISFGYGLEMAARPTTCIGIAGDTSTDKARRMFHEARKLKQLTEDSQREFLVDRYKPGVSKVVRFDAKEDYVMKNEKFICNVENTILETFEPIPFADEGDEDA
B2: GST-HYP [Drosophila] / Myc-MEK [Drosophila] (parent)
chain 1: B1 chain 1
chain 2: MGEETINSTQNKTRTKTTRPKAVYLWTVSDVLKWYRRHCGEYTQYEQLFAQHDITGRALLRITDSSLQRMGVTDNRDREAIWREIVKQRLKTDIMEIRDMERLNIY
B3: GST-HYP [Drosophila] / V5-KSR [Drosophila] (parent)
chain 1: MSSNNNAPASAPDTGSTNANDPISGSLSVDSNLVIIQDMIDLSANHLEGLRTQCAISSTLTQQEIRCLESKLVRYFSELLLAKMRLNERIPANGLVPHTTGNELRQWLRVVGLSQGTLTACLARLTTLEQSLRLSDEEIRQLLADSPSQREEEELRRLTRAMQNLRKCMESLESGTAASNNDPEQWHWDSWDRPTHIHRGSVGNIGLGNNSTASPRTHHRQHGVKGKNSALANSTNFKSGRQSPSATEELNSTQGSQLTLTLTPSPPNSPFTPSSGLSSSLNGTPQRSRGTPPPARKHQTLLSQSHVQVDGEQLARNRLPTDPSPDSHSSTSSDIFVDPNTNASSGGSSSNVLMVPCSPGVGHVGMGHAIKHRFTKALGFMATCTLCQKQVFHRWMKCTDCKYICHKSCAPHVPPSCGLPREYVDEFRHIKEQGGYASLPHVHGAAKGSPLVKKSTLGKPLHQQHGDSSSPSSSCTSSTPSSPALFQQRERELDQAGSSSSANLLPTPSLGKHQPSQFNFPNVTVTSSGGSGGVSLISNEPVPEQFPTAPATANGGLDSLVSSSNGHMSSLIGSQTSNASTAATLTGSLVNSTTTTSTCSFFPRKLSTAGVDKRTPFTSEYTDTHKSNDSDKTVSLSGSASTDSDRTPVRVDSTEDGDSGQWRQNSISLKEWDIPYGDLLLLERIGQGRFGTVHRALWHGDVAVKLLNEDYLQDEHMLETFRSEVANFKNTRHENLVLFMGACMNPPYLAIVTSLCKGNTLYTYIHQRREKFAMNRTLLIAQQIAQGMGYLHAREIIHKDLRTKNIFIENGKVIITDFGLFSSTKLLYCDMGLGVPHNWLCYLAPELIRALQPEKPRGECLEFTPYSDVYSFGTVWYELICGEFTFKDQPAESIIWQVGRGMKQSLANLQSGRDVKDLLMLCWTYEKEHRPQFARLLSLLEHLPKKRLARSPSHPVNLSRSAESVF
chain 2: B2 chain 2
B4: Flag-CNK^2–549 [Drosophila] / V5-KSR [Drosophila] (parent)
chain 1: B3 chain 1
chain 2: B1 chain 2

Variants of: B1
Test: GST pull-down, immunoblot quantification
Conditions: with Myc-MEK [Drosophila]; S2 cells; GST-HYP + RRKM (Ha-RASV12, Pyo-RAF, V5-KSR, Myc-MEK) co-expressed; captured via GST-HYP; anti-MEK blot; parent: 1

| ratio to parent | Variant |
| --- | --- |
| 0.04 | chain 2 V197E |
| 0.28 | chain 2 M196E |
| 0.05 | chain 2 D194K |
| 0.68 | chain 2 Q199A |
| 1.01 | chain 2 S193A |

Same assay, conditions: with Myc-MEK [Drosophila]; S2 cells; GST-HYP, V5-KSR, Myc-MEK co-expressed; captured via GST-HYP; anti-MEK blot; parent: 1

| ratio to parent | Variant |
| --- | --- |
| 0.03 | chain 2 V197E |
| 0.23 | chain 2 M196E |
| 0.05 | chain 2 D194K |
| 0.62 | chain 2 Q199A |
| 1.09 | chain 2 S193A |
| 0.02 | chain 2 D194K V197E |

Same assay, conditions: with Myc-MEK [Drosophila], S2 cells, Flag-CNK2–549, V5-KSR, GST-HYP co-expressed, captured via GST-HYP, anti-Myc (MEK) blot, parent: 1

| ratio to parent | Variant |
| --- | --- |
| 1.01 | chain 2 R45F |
| 0.27 | chain 2 N81E |
| 0.05 | chain 2 N81W |
| 1.12 | chain 2 R98E |
| 0.04 | chain 2 Q83E |
| 0.94 | chain 2 N95E |
| 0.68 | chain 2 Y75R |

Same assay, conditions: with Myc-MEK [Drosophila]; S2 cells; GST-HYP + RRKM co-expressed; captured via GST-HYP; anti-Myc (MEK) blot; parent: 1

| ratio to parent | Variant |
| --- | --- |
| 0.1 | chain 2 K282D |
| 0.5 | chain 2 F73R V251R |
| 0.34 | chain 2 D80R K282D |
| 0.13 | chain 2 F73R E249R |
| 0.9 | chain 2 D80R |
| 0.76 | chain 2 E249R |
| 0.48 | chain 2 A66F F73R |
| 0.82 | chain 2 F73R |
| 1.08 | chain 2 A66F |
| 0.06 | chain 2 E249R V251R |
| 0.78 | chain 2 V251R |

Same assay, conditions: with Myc-MEK [Drosophila]; S2 cells; GST-HYP, Flag-CNK2–549 + RRKM co-expressed; captured via GST-HYP; anti-Myc (MEK) blot; parent: 1

| ratio to parent | Variant |
| --- | --- |
| 0.77 | chain 2 I122D |
| 0.05 | chain 2 L151D |
| 0.01 | chain 2 I122D L151D |

Same assay, conditions: with Flag-CNK^2–549 [Drosophila]; S2 cells; Flag-CNK2–549, V5-KSR, Myc-MEK, GST-HYP co-expressed; captured via GST-HYP; anti-Myc (MEK) blot; parent: 1

| ratio to parent | Variant |
| --- | --- |
| 0.56 | chain 1 E323R |

Same assay, conditions: with Flag-CNK^2–549 [Drosophila]; S2 cells; Flag-CNK2–549, V5-KSR, Myc-MEK, GST-HYP co-expressed; captured via GST-HYP; anti-V5 (KSR) blot; parent: 1

| ratio to parent | Variant |
| --- | --- |
| 0.66 | chain 1 E323R |

Variants of: B2
Test: GST pull-down, immunoblot quantification
Conditions: with Myc-MEK [Drosophila]; S2 cells; GST-HYP, Flag-CNK2–549 + RRKM co-expressed; anti-Myc (MEK) blot; parent: 1

| ratio to parent | Variant |
| --- | --- |
| 0.09 | chain 2 L90D |
| 0.04 | chain 2 L90D I97D |
| 0.68 | chain 2 I97D |

Variants of: B3
Test: GST pull-down, immunoblot quantification
Conditions: with V5-KSR [Drosophila]; S2 cells; GST-HYP, Flag-CNK2–549 + RRKM co-expressed; anti-V5 (KSR) blot; parent: 1

| ratio to parent | Variant |
| --- | --- |
| 0.62 | chain 2 I97D |
| 0.13 | chain 2 L90D |
| 0.05 | chain 2 L90D I97D |

Variants of: B4
Test: GST pull-down, immunoblot quantification
Conditions: with V5-KSR [Drosophila]; S2 cells; Flag-CNK2–549, V5-KSR, Myc-MEK, GST-HYP co-expressed; captured via GST-HYP; anti-V5 (KSR) blot; parent: 1

| ratio to parent | Variant |
| --- | --- |
| 0.15 | chain 2 N81E |
| 0.07 | chain 2 N81W |
| 0.74 | chain 2 Y75R |
| 0.81 | chain 2 R98E |
| 0.99 | chain 2 R45F |
| 0.16 | chain 2 Q83E |
| 0.92 | chain 2 N95E |

Same assay, conditions: with V5-KSR [Drosophila]; S2 cells; GST-HYP + RRKM co-expressed; captured via GST-HYP; anti-V5 (KSR) blot; parent: 1

| ratio to parent | Variant |
| --- | --- |
| 0.61 | chain 2 D80R |
| 0.16 | chain 2 D80R K282D |
| 0.87 | chain 2 F73R |
| 0.97 | chain 2 A66F |
| 0.79 | chain 2 V251R |
| 0.82 | chain 2 E249R |
| 0.16 | chain 2 F73R E249R |
| 0.72 | chain 2 F73R V251R |
| 0.03 | chain 2 K282D |
| 0.66 | chain 2 A66F F73R |
| 0.08 | chain 2 E249R V251R |

Variants of: B4
Test: GST pull-down, immunoblot quantification
Conditions: with V5-KSR [Drosophila], S2 cells, GST-HYP, Myc-MEK co-expressed, captured via GST-HYP, anti-V5 (KSR) blot, parent: 1

| ratio to parent | Variant |
| --- | --- |
| 0.95 | chain 2 T135F |
| 0.89 | chain 2 L267R |
| 0.92 | chain 2 K109E |
| 0.62 | chain 2 M196E |
| 0.9 | chain 2 H263A |
| 0.89 | chain 2 R264E |
| 0.95 | chain 2 K33D |
| 0.93 | chain 2 A40F |

Variants of: B4
Test: GST pull-down, immunoblot quantification
Conditions: with V5-KSR [Drosophila]; S2 cells; GST-HYP, Flag-CNK2–549 + RRKM co-expressed; captured via GST-HYP; anti-V5 (KSR) blot; parent: 1

| ratio to parent | Variant |
| --- | --- |
| 0.14 | chain 2 L151D |
| 0.76 | chain 2 I122D |
| 0.01 | chain 2 I122D L151D |

Same assay, conditions: with Flag-CNK^2–549 [Drosophila]; S2 cells; Flag-CNK2–549, V5-KSR, Myc-MEK, GST-HYP co-expressed; captured via GST-HYP; anti-Myc (MEK) blot; parent: 1

| ratio to parent | Variant |
| --- | --- |
| 0.83 | chain 1 R913E |

Same assay, conditions: with Flag-CNK^2–549 [Drosophila]; S2 cells; Flag-CNK2–549, V5-KSR, Myc-MEK, GST-HYP co-expressed; captured via GST-HYP; anti-V5 (KSR) blot; parent: 1

| ratio to parent | Variant |
| --- | --- |
| 0.75 | chain 1 R913E |

Same assay, conditions: with V5-KSR [Drosophila], S2 cells, GST-HYP, Myc-MEK co-expressed, captured via GST-HYP, anti-V5 (KSR) blot, parent: 1

| ratio to parent | Variant |
| --- | --- |
| 0.49 | chain 2 M196E |
| 0.07 | chain 2 V197E |
| 0.98 | chain 2 S193A |
| 0.08 | chain 2 D194K |
| 0.05 | chain 2 D194K V197E |
| 0.82 | chain 2 Q199A |

Same assay, conditions: with V5-KSR [Drosophila]; S2 cells; GST-HYP + RRKM (Ha-RASV12, Pyo-RAF, V5-KSR, Myc-MEK) co-expressed; captured via GST-HYP; anti-V5 (KSR) blot; parent: 1

| ratio to parent | Variant |
| --- | --- |
| 0.26 | chain 2 M196E |
| 0.03 | chain 2 V197E |
| 1 | chain 2 S193A |
| 0.04 | chain 2 D194K |
| 0.73 | chain 2 Q199A |

Same assay, conditions: with Flag-CNK^2–549 [Drosophila]; S2 cells; Flag-CNK2–549, GST-HYP + RRM (Ha-RASV12, Pyo-RAF, Myc-MEK) co-expressed; captured via GST-HYP; anti-Myc (MEK) blot; parent: 1

| ratio to parent | Variant |
| --- | --- |
| 0.07 | chain 1 Y925D |
| 0.04 | chain 1 K903D |
| 0.05 | chain 1 M902D |
| 1.23 | chain 1 E926R |

Same assay, conditions: with Flag-CNK^2–549 [Drosophila]; S2 cells; Flag-CNK2–549, GST-HYP + RRM (Ha-RASV12, Pyo-RAF, Myc-MEK) co-expressed; captured via GST-HYP; anti-V5 (KSR) blot; parent: 1

| ratio to parent | Variant |
| --- | --- |
| 0.12 | chain 1 Y925D |
| 0.07 | chain 1 K903D |
| 0.07 | chain 1 M902D |
| 1.07 | chain 1 E926R |
